Patent US10100120B2, “Antibody which specifically binds to human CRTH2” (KYOWA HAKKO KIRIN CO., LTD, priority 2015, dated 2018)

Key:
[1] = target: T1, mutated human CRTH2 with amino acid substitution (Homo sapiens, UniProt Q9Y5Y4, D196A/T198A); test: Epitope analysis using CHO-S cells which express mutated human CRTH2 with amino acid substitution; type: binding; conditions: mutant D196A and T198A; antibody 10 μg/mL; relative to wild-type = 100%
T1 construct: inserting genes encoding various mutants with amino acid substitution obtained by deleting termination codons; expressed in transfected cells; host or cells: CHO-S cells (Lifetechnologies), transient (phmAG1-MNLinker vector)
T1 sequence (Q9Y5Y4 1-395 D196A/T198A): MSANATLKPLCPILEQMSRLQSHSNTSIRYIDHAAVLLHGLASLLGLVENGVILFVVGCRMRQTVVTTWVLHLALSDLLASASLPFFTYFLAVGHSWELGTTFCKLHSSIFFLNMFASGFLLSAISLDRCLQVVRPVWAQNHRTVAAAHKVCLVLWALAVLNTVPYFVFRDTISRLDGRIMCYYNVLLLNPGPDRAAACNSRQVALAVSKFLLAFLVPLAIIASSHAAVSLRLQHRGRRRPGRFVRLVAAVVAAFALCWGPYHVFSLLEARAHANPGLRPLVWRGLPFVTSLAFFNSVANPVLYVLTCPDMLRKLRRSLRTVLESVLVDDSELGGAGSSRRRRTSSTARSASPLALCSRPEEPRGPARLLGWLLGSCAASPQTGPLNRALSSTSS
Experimental: A mutant with amino acid substitution expression vector obtained by partially substituting amino acid residues in an extracellular region with other amino acid residues among the amino acid sequences of human CRTH2 was prepared. Specifically, mutant with amino acid substitution expression vectors obtained by substitution of S2A; N4A; T6A and L7A; K8A, P9A, and L10A; P12A, L14A, and EISA; Q16E, R19H, and Q21R; H23A, S24A, and N25A; T26A, S27A, and I28A; D171A, T172A, and I173A; S174A, R175A, and L176A; D177A, G178A, and R179A; 1180A and M181A; Y183A, Y184A, and N185A; L187A, L188A, and L189A; N190A; P191A; G192A; P193A; D194A; R195A; D196A, and T198A; N275A, G277A, and L278A; P276A; P279A and L281A; P280A; or V282A, R283A, and R284A in the amino acid sequences represented by SEQ ID NO: 2 were respectively prepared. It should be noted that the above symbols in the amino acid substitution indicate [single letter code of an amino acid residue before substitution] [substitution position counting from the N terminal] [single letter code of the amino acid reside after substitution].
Azami-Green tag was added to the intercellular C terminal region by inserting genes encoding various mutants with amino acid substitution obtained by deleting termination codons to the restriction enzyme sites of BamHI and HindIII using phmAG1-MNLinker (MBL) as expression vectors.
The above-described vectors expressing mutants with amino acid substitution were prepared using 1) a method of entirely synthesizing gene sequences encoding mutants with amino acid substitution and inserting the gene sequences into a vector or 2) a method of performing site-specific mutation from a vector into which DNA which encodes the amino acid sequences of wild-type human CRTH2 represented by SEQ ID NO: 1 was inserted.
CHO-S cells (Lifetechnologies) were used for preparing mutated human CRTH2 with amino acid substitution expressing cell lines. Free style CHO expression medium (Invitrogen) containing 8 mM L-Glutamine (Invitrogen) was used for subculturing cells and the cells were cultured by shaking under the conditions of 37° C. in the presence of 5% CO2.
25 μg of the mutated human CRTH2 with amino acid substitution expression vector prepared in (1) described above was dissolved in 400 μL of Opti-Pro SFM (Invitrogen) and 25 μL of a Freestyle MAX Reagent (Invitrogen) was dissolved in 400 μL of Opti-Pro SFM and each of them were allowed to stand at room temperature for 5 minutes. The two liquids were mixed with each other and allowed to stand at room temperature for 15 minutes. The mixed solution was added to the CHO-S culture solution and the cells were cultured for 24 hours, thereby obtaining cell lines which express mutated human CRTH2 with amino acid substitution.
The CHO-S cells which express mutated human CRTH2 with amino acid substitution established in (2) were washed with SM, seeded in a 96-well plate such that one well has 2×10^5 cells, and centrifuged at 1700 rpm for 2 minutes. After the supernatant was removed, chLym2, LV0HV1, the anti-human CRTH2 antibody hu19A2 v52, hu8B1 v1, ch3C12, or ch31A5 prepared in Example 9, or a commercially available anti-human CRTH2 antibody BM16 (Santa Cruz) prepared to have a concentration of 10 μg/mL using SM was added thereto to cause a reaction at 4° C. for 1 hour.
After the cells were washed, goat anti-Human IgG Alexa 647 (Molecular Probes) diluted with SM was added to wells to which chLym2, LV0HV1, hu19A2 v52, hu8B1 v1, ch3C12, or ch31A5 was added and goat anti-Rat IgG Alexa 647 (Molecular Probes) diluted with SM was added to wells to which BM16 was added at a final concentration of 10 μg/mL to cause a reaction at 4° C. for 1 hour.
After the reaction, the cells were washed and suspended with SM, and the fluorescent intensity was analyzed by flow cytometry (BD Biosciences, FACS CantoII). […]

Th2 cells = test: Cytotoxic activity against Th2 cells: cytokine production of PBMC after antibody treatment; type: cell-based, human; conditions: antibody 10 μg/mL 20 hours, then anti-CD3/anti-CD28 stimulation 3 days
Experimental: The mononuclear cell layer prepared in the same manner as in Example 13 was washed twice with RPMI-1640 (Wako Pure Chemical Industries) to which 1/10 volume FBS (GIBCO Inc.), 200 mM-L-Glutamine Stock Solution (NACALAI TESQUE, Inc.), 10 mM MEM Non-Essential Amino Acids Solution (GIBCO Inc.), 100 mM Sodium Pyruvate (GIBCO Inc.), 1 M HEPES Buffer Solution (GIBCO Inc.), and 1/100 volume Penicillin-Streptomycin, Liquid (GIBCO Inc.) were added [hereinafter, referred to as peripheral blood mononuclear cell (PBMC) culture medium], thereby preparing a 1×10^7 cells/mL cell suspension.
The prepared cell suspension was seeded in a 96-well plate at 100 μL/well, chLym2 antibody, the humanized anti-human CRTH2 antibody LV0HV1 or the isotype control antibody described in Example 8 was added thereto at a final concentration of 10 μg/mL to cause a reaction in a 5% CO2 incubator at 37° C. for 20 hours.
The cells after the reaction were washed 7 times with a PBMC culture medium to remove the test antibodies thoroughly. Thereafter, the cells were suspended with 100 μL of PBMC culture medium and seeded in a plate in which anti-CD3 antibody OKT3 (Abeam plc.) was immobilized at a concentration of 1 μg/mL. Next, an anti-CD28 antibody (BD Biosciences) prepared to have a concentration of 2 μg/mL was added thereto at 100 μL/well to cause a reaction in a 5% CO2 incubator at 37° C. for 3 days.
The supernatant after the reaction was recovered, and cytokine in the supernatant was quantified using Human IFN-γ Flex Set (BD Biosciences), Human IL-5 Flex Set (BD Biosciences), and Human IL-13 Flex Set (BD Biosciences) according to the attached instructions.

reactivity against cells expressing mutated human CRTH2 [1]: lost
B1: LV0HV1: humanized Lym2 antibody, VL LV0 (SEQ ID NO: 33), VH HV1 (SEQ ID NO: 51) (antibody, V domains shown)
VH: EVQLVESGGGVVQPGRSLRLSCAASGFTFSNYYMAWVRQAPGKGLEWVATISYDGSSTYYRDSVKGRFTISRDNAKNSLYLQMNSLRAEDTATYYCARHRGYYYSGAGYFDYWGQGTMVTVSS
VL: DIVMTQTPLSLPVTPGESASISCRSSQSLEYSDGYTYLEWYLQKPGQSPQVLIYGVSNRFSGVPDRFSGSGSGTDFTLKISRVEAEDVGVYYCFQATHDPLTFGQGTKLEIK
production of IL-5 (Th2 cytokine) (Th2 cells; FIG. 12(A)): reduced
production of IL-13 (Th2 cytokine) (Th2 cells; FIG. 12(A)): reduced
production of IFN-γ (Th1 cytokine) (Th2 cells; FIG. 12(B)): not changed
